Cytoplasmic Ca2+ release in MDA-MB-231 cells (Fura-2), dose response to OHD (4–12), EC50 data for one substance are collected here from PMC9561612.

The target in this assay is CXCR4 receptor (human (endogenous in MDA-MB-231)) (UniProt P61073).
Chain of UniProt P61073 (P61073 whole entry): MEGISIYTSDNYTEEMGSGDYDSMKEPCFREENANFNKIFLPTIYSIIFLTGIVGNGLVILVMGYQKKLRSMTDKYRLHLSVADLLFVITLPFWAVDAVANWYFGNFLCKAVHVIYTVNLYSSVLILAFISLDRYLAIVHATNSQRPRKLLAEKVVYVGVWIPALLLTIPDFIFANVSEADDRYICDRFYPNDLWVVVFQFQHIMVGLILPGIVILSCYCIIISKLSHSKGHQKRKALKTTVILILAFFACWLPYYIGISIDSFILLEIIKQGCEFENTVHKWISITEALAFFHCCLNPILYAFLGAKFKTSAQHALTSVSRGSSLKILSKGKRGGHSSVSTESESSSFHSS

Substance “OHD_(4–12) (Obligate HeteroDimer CXCL4–CXCL12) (from UniProt P48061-2 22-89) (complex)” gave a cytoplasmic Ca2+ release in MDA-MB-231 cells (Fura-2), dose response to OHD (4–12), EC50 of 1.3 nM.
